From patent US20250283871A1, “COMPOSITIONS AND METHODS FOR MODULATING THE INTERACTION BETWEEN SS18-SSX FUSION ONCOPROTEIN AND NUCLEOSOMES” (Dana-Farber Cancer Institute, Inc., priority 2020, published 2025)

Legend:
BCL7B (human) [1] = target: BCL7B (human) (UniProt Q9BQE9); assay: MS of BAF complexes from Aska-SS cells, shControl against shSS18-SSX, Rep 2
[2] = target: SSXT_HUMAN Protein SSXT (human) (UniProt Q15532); assay: as above
[3] = target: SMRD1_HUMAN SWI/SNF-related matrix-associated actin-dependent regulator of chromatin subfamily D member 1 (human) (UniProt Q96GM5); assay: as above
SSX1; SSX8 (human) = SSX1; SSX8 (human) (UniProt Q16384); assay: as above
[4] = target: SMRC1_HUMAN SWI/SNF complex subunit SMARCC1 (human) (UniProt Q92922); assay: as above
[5] = target: ARI1B_HUMAN Isoform 3 of AT-rich interactive domain-containing protein 1B (human) (UniProt Q8NFD5); assay: as above
[6] = target: SNF5_HUMAN Isoform B of SWI/SNF-related matrix-associated actin-dependent regulator of chromatin subfamily B member 1 (human) (UniProt Q12824); assay: as above
[7] = target: BCL7C_HUMAN Isoform 2 of B-cell CLL/lymphoma 7 protein family member C (human) (UniProt Q8WUZ0); assay: as above
[8] = target: ACL6A_HUMAN Actin-like protein 6A (human) (UniProt O96019); assay: as above
[9] = target: SMCE1_HUMAN SWI/SNF-related matrix-associated actin-dependent regulator of chromatin subfamily E member 1 (human) (UniProt Q969G3); assay: as above
[10] = target: ZN326_HUMAN DBIRD complex subunit ZNF326 (human) (UniProt Q5BKZ1); assay: anti-SMARCA4 (BRG1) IP, mass spectrometry, human fibroblasts
[11] = target: URB2_HUMAN Unhealthy ribosome biogenesis protein 2 homolog (human) (UniProt Q14146); assay: as above
[12] = target: QCR2_HUMAN Cytochrome b-c1 complex subunit 2, mitochondrial (human) (UniProt P22695); assay: as above
[13] = target: ZC11A_HUMAN Zinc finger CCCH domain-containing protein 11A (human) (UniProt O75152); assay: as above
[14] = target: YLPM1_HUMAN Isoform 4 of YLP motif-containing protein 1 (human) (UniProt P49750); assay: as above
[15] = target: UBC_HUMAN Polyubiquitin-C (human) (UniProt P0CG48); assay: as above
[16] = target: UBP2L_HUMAN Isoform 5 of Ubiquitin-associated protein 2-like (human) (UniProt Q14157); assay: as above
[17] = target: TNR6B_HUMAN Trinucleotide repeat-containing gene 6B protein (human) (UniProt Q9UPQ9); assay: as above
[18] = target: VIME_HUMAN Vimentin (human) (UniProt P08670); assay: as above
[19] = target: TRA2B_HUMAN Transformer-2 protein homolog beta (human) (UniProt P62995); assay: as above
[20] = target: UCRIL HUMAN Putative cytochrome b-c1 complex subunit Rieske-like protein 1 (human) (UniProt P0C7P4); assay: as above
[21] = target: XRN2_HUMAN 5'-3' exoribonuclease 2 (human) (UniProt Q9H0D6); assay: as above
BCL7B (human) [22] = target: BCL7B (human) (UniProt Q9BQE9); assay: MS of BAF complexes from Aska-SS cells, shControl against shSS18-SSX, Rep 1
[23] = target: SSXT_HUMAN Protein SSXT (human) (UniProt Q15532); assay: as above
[24] = target: SMRC1_HUMAN SWI/SNF complex subunit SMARCC1 (human) (UniProt Q92922); assay: as above
[25] = target: ARI1B_HUMAN Isoform 3 of AT-rich interactive domain-containing protein 1B (human) (UniProt Q8NFD5); assay: as above
[26] = target: SNF5_HUMAN Isoform B of SWI/SNF-related matrix-associated actin-dependent regulator of chromatin subfamily B member 1 (human) (UniProt Q12824); assay: as above
[27] = target: BCL7C_HUMAN Isoform 2 of B-cell CLL/lymphoma 7 protein family member C (human) (UniProt Q8WUZ0); assay: as above
[28] = target: ACL6A_HUMAN Actin-like protein 6A (human) (UniProt O96019); assay: as above

LFQ intensity ratio Aska (shControl)/Aska (shSS18-SSX), norm to SMARCA4 (BCL7B (human) [1]): 1.13 | LFQ intensity ratio Aska (shControl)/Aska (shSS18-SSX), norm to SMARCA4 [2]: 1.26 | LFQ intensity ratio Aska (shControl)/Aska (shSS18-SSX), norm to SMARCA4 [3]: 0.95 | LFQ intensity ratio Aska (shControl)/Aska (shSS18-SSX), norm to SMARCA4 (SSX1; SSX8 (human)): 66.8 | LFQ intensity ratio Aska (shControl)/Aska (shSS18-SSX), norm to SMARCA4 [4]: 0.622 | LFQ intensity ratio Aska (shControl)/Aska (shSS18-SSX), norm to SMARCA4 [5]: 0.65 | LFQ intensity ratio Aska (shControl)/Aska (shSS18-SSX), norm to SMARCA4 [6]: 0.0637 | LFQ intensity ratio Aska (shControl)/Aska (shSS18-SSX), norm to SMARCA4 [7]: 1.54 | LFQ intensity ratio Aska (shControl)/Aska (shSS18-SSX), norm to SMARCA4 [8]: 1.1 | LFQ intensity ratio Aska (shControl)/Aska (shSS18-SSX), norm to SMARCA4 [9]: 0.855 | NSAF [10]: 0 | NSAF [11]: 0 | NSAF [12]: 0.00014 | NSAF [13]: 0 | NSAF [14]: 0.000266 | NSAF [15]: 9.25e-05 | NSAF [16]: 5.74e-05 | NSAF [17]: 6.92e-05 | NSAF [18]: 0.000136 | NSAF [19]: 0.00022 | NSAF [20]: 0.000224 | NSAF [21]: 0 | LFQ intensity ratio Aska (shControl)/Aska (shSS18-SSX), norm to SMARCA4 (BCL7B (human) [22]): 1.34 | LFQ intensity ratio Aska (shControl)/Aska (shSS18-SSX), norm to SMARCA4 [23]: 0.959 | LFQ intensity ratio Aska (shControl)/Aska (shSS18-SSX), norm to SMARCA4 [24]: 0.506 | LFQ intensity ratio Aska (shControl)/Aska (shSS18-SSX), norm to SMARCA4 [25]: 0.721 | LFQ intensity ratio Aska (shControl)/Aska (shSS18-SSX), norm to SMARCA4 [26]: 0.0221 | LFQ intensity ratio Aska (shControl)/Aska (shSS18-SSX), norm to SMARCA4 [27]: 1.74 | LFQ intensity ratio Aska (shControl)/Aska (shSS18-SSX), norm to SMARCA4 [28]: 0.784
Substance: SMCA4_HUMAN Transcription activator BRG1 (from UniProt P51532 1-1647) (enzyme)
